Series [1] addresses T1, HIV-1 reverse transcriptase, subtype B (HIV-1 subtype B strain HXB2, UniProt P04585;P04585 588-1147;588-1027). The series is described as follows: filter binding.
The target of series [2] is T1, HIV-1 reverse transcriptase, subtype B. The series is described as follows: filter binding. This is another data set of the same source.

Usually Kd stands for the constant that tells how readily two partners part at equilibrium. A lower Kd goes with a tighter complex.

B1: 88.1 (6/5AL) aptamer (structured_RNA)
RNA: GGGAAAAGCGAAUCAUACACAAGACAUUGACCAAAAGGGUCGAUAGCGUCGUGUAGAUUGCACCCAUGACUGAGCUACUGCCAAAUCCACCCACGGGCAUAAGGUAUUUAAUUCCAUA
In the case of B1, in series [1], the Kd came to 81 nM.

B2: Arbitrary control RNA (ssRNA)
RNA: GGGAAAAGCGAAUCAUACACAAGAAAUUUGGACUUUCCGCCCUUCUUGGCCUUUAUGAGGAUCUCUCUGAUUUUUCUUGCGUCGAGUUUUCCGGGGGCAUAAGGUAUUUAAUUCCAUA
For B2, the binding result in series [2] is “no binding”.

These data come from publication PMC5449596.
